# Data as given in PMC9825171 (Nucleic Acids Research, 2022).
# T1: human L3MBTL3 fragment 1–523 (human, UniProt Q96JM7-2 1-523)
# T1 sequence (looked up): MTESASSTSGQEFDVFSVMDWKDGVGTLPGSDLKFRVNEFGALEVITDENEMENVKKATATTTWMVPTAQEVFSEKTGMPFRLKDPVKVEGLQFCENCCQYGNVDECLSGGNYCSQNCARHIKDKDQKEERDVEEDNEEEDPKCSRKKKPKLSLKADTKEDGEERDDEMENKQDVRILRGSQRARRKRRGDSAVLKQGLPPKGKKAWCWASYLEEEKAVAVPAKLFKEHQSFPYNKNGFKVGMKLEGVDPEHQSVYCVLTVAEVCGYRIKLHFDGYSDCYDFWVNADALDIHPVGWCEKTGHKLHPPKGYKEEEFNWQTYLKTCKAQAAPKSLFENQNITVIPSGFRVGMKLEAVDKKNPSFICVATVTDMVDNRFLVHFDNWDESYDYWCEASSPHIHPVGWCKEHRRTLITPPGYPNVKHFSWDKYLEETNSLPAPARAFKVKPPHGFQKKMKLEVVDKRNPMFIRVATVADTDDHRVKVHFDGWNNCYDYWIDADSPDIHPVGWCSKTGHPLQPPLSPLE
# Tests used:
# Assay in all cases: ITC
# [1] = target: T2, RBPJ (53–474) E260A (Mus musculus, UniProt P31266 53-474, E260A)
# T2 sequence (P31266 53-474 E260A): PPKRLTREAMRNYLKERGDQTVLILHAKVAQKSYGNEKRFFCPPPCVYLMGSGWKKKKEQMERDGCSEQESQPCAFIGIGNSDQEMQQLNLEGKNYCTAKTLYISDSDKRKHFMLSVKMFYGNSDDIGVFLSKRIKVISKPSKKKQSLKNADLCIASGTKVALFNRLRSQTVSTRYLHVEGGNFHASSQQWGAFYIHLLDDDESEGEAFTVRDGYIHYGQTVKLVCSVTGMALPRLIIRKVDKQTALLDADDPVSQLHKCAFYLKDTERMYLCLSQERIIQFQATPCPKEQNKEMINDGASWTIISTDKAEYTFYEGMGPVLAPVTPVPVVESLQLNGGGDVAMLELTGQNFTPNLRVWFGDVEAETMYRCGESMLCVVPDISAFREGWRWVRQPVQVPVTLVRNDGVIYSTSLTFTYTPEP
# [2] = target: RBPJ (53–474) Q333A (Mus musculus, UniProt P31266 53-474, Q333A)
# Chain of RBPJ (53–474) Q333A (P31266 53-474 Q333A): as the sequence (P31266 53-474 E260A) above, with A208E, Q281A counted along it
# [3] = target: RBPJ (53–474) E260K (Mus musculus, UniProt P31266 53-474, E260K)
# Chain of RBPJ (53–474) E260K (P31266 53-474 E260K): as the sequence (P31266 53-474 E260A) above, with A208K counted along it
# [4] = target: RBPJ (53–474) V263A (Mus musculus, UniProt P31266 53-474, V263A)
# Chain of RBPJ (53–474) V263A (P31266 53-474 V263A): as the sequence (P31266 53-474 E260A) above, with A208E, V211A counted along it
# [5] = target: RBPJ (53–474) K275M (Mus musculus, UniProt P31266 53-474, K275M)
# Chain of RBPJ (53–474) K275M (P31266 53-474 K275M): as the sequence (P31266 53-474 E260A) above, with A208E, K223M counted along it
# [6] = target: T2, RBPJ (53–474) E260A; remark: listed apart in the source
# [7] = target: T1, human L3MBTL3 fragment 1–523
binder,measurement,setting,value
"MENVKKATATTTWMVPTAQ (peptide, UniProt Q96JM7-2 52-70, looked up) [L3MBTL3 (52–70) wild-type peptide (19-mer)]",Kd,[1],3.73 µM
same,Ka,[2],760000 M⁻¹
same,Kd,[2],1300 nM
same,dH,[2],-10.6 kcal/mol
same,Ka,[3],220000 M⁻¹
same,dH,[3],-16.8 kcal/mol
same,Ka,[4],330000 M⁻¹
same,Kd,[4],3000 nM
same,dH,[4],-10.3 kcal/mol
same,Ka,[5],240000 M⁻¹
same,Kd,[5],4.2 µM
same,dH,[5],-13.7 kcal/mol
same,Ka,[6],260000 M⁻¹
same,dH,[6],-13.6 kcal/mol
"Mus musculus CSL (RBPJ), residues 53–474 (structural core domain), wild type, as used for ITC (domain or fragment) not shown",Ka,[7],540000 M⁻¹
same,Kd,[7],1900 nM
